# Measurements reported in patent US20100260769A1 (MORPHOTEK, published 2010).
# Residue numbers refer to the chain shown, from its start.
# T1: full length human TEM1 (endosialin) with a C-terminal V5-His tag, expressed in A431-TEM1 cells / tumor … (human, UniProt Q9HCU0 18-757)
# T1 construct: Target in tissue sections of A431-TEM1 tumor xenografts; also called hTEM1; endosialin/TEM1
# T1 sequence: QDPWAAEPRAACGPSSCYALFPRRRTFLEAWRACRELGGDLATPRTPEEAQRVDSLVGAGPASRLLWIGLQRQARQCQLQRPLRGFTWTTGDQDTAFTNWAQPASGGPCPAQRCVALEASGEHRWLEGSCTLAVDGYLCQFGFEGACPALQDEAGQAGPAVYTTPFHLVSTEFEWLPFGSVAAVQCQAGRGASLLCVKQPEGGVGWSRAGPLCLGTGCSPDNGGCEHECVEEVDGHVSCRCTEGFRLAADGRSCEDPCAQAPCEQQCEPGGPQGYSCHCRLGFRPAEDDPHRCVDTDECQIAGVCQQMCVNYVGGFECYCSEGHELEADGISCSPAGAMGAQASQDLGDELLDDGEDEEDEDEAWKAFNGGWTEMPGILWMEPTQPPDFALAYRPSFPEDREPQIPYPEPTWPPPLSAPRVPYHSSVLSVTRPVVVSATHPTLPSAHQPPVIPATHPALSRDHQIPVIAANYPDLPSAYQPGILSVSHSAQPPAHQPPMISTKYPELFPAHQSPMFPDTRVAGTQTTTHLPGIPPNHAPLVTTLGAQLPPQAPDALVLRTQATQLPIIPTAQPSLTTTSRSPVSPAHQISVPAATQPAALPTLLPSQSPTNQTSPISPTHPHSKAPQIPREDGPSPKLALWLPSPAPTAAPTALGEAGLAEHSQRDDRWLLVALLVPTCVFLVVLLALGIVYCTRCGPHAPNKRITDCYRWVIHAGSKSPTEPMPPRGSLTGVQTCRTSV
# T2: mouse TEM1 extracellular domain (ECD)-Fc fusion protein (mouse, UniProt Q91V98 18-695)
# T2 construct: also called mouse TEM1-Fc
# T2 sequence: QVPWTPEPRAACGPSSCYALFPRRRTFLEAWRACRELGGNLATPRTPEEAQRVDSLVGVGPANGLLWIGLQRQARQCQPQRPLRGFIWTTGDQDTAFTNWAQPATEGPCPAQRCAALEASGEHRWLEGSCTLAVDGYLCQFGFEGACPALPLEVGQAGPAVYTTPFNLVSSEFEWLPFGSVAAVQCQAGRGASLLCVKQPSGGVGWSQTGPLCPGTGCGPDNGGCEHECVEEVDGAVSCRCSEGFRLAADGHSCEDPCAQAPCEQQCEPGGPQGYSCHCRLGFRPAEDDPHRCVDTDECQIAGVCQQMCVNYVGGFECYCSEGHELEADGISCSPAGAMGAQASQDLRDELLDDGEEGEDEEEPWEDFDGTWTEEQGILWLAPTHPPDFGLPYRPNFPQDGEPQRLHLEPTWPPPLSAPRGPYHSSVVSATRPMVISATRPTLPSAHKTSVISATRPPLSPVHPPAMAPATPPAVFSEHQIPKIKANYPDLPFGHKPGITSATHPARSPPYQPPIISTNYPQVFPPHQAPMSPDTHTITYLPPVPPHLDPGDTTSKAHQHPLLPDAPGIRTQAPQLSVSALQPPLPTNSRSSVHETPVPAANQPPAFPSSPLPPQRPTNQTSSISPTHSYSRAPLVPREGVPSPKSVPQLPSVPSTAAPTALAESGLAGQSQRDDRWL
# B1: rabbit anti-human endosialin monoclonal antibody 1-55-2 (antibody, V domains shown)
# VH: QQQLMESGGDLVKPEGSLTLTCTASGFSFSSSYWGCWVRQAPGKGPEWIACIYGGSSGTTYYPNWAKGRFSISKTSSTTVTLQMASLTAADTATYFCARVTNGGDWDFKLWGPGTLVTVSS
# VL: ELVMTQTPASVEVAVGGTVTIKCQASQSINTYLAWYQQKPGQPPKLLIYRASTLASGVPSRFKGSGSGTEFTLTISDLECADAATYYCQQSVRVIDVDNTFGGGTEVVVK
# notes: Rabbit IgG from a hybridoma, kappa light chain; rabbit constant regions are not; also called hybridoma 1-55-2 (ATCC PTA-9652)
# B2: rabbit anti-human endosialin monoclonal antibody 1-25-2 (antibody, V domains shown)
# VH: B1 VH with Q1A, Q3S, M5E, V119I
# VL: B1 VL with M4L, S28T, T31N, A34T, S91T, I95V, T100S
# B3: rabbit anti-mouse endosialin monoclonal antibody clone 8 (antibody, V domains shown)
# VH: AQSVEESGGGLVKPEGSLTLSCKASGFSFSNNSYICWVRQAPGKGLEWIACIEFGRGNSHYASWAKGRFTITRSTSLNTVTLQLNSLTAADTATYFCARGSRGVGYGYGLWGPGTLVTISS
# VL: ELDMTQTPSPVSAAVGGTVTINCQASQSVYSNSRLSWYQQKPGQPPKQLIYSASTLASGVPSRFKGSGSGTHFTLTLSGVQCDDAATYYCQGEFACSSADCSAFGGGTELEILK
# notes: Rabbit IgG from a hybridoma, kappa light chain; rabbit constant regions are not; also called hybridoma clone 8 (ATCC PTA-9651)
# B4: rabbit anti-human endosialin monoclonal antibody 1-3-1 (antibody, V domains shown)
# VH: AQSVEESGGDLVRPGASLTLTCSASGFTINRNYWICWVRQAPGRGPEWIACIYGGSSGTTYYTNWAKGRFTISKAASTTVTLQMTSLTVADTATYFCARVDNGGDWYFRLWGPGTLVTISS
# VL: ELDLTQTPASVEVAVGGTVTIKCQASQSISSYLAWYQQKPGQPPKLLIYRASTLASGVSSRFKGSGSGTEFTLTISGVQCDDAATYYCQQGVRVVDIDNSFGGGTELVVK
# Tests used:
# [1] = biological target: T1, full length human TEM1 (endosialin) …; test: IHC on FFPE A431-TEM1 tumor xenograft sections, biotinylated antibody at 20 µg/ml
# [2] = biological target: soluble human endosialin extracellular domain-mouse Fc fusion protein (human; mouse); test: competition ELISA: hTEM1-Fc (15 µg/mL) preincubated with serial dilutions of antibody, binding to fibronectin-coated plate detected with anti-mouse HRP
# [3] = biological target: T2, mouse TEM1 extracellular domain …; test: hybridoma screening ELISA on TEM1-Fc protein, Fc-reactive clones removed by counterscreen
# Method: To generate rabbit anti-mouse endosialin (TEM1) antibody clone 8, we immunized two New Zealand white rabbits with four injections of mouse TEM1 extracellular domain (ECD)-Fc fusion protein. Antiserum titer was monitored using standard ELISA (TEM1) and counterscreen ELISA for Fc reactivity. A final IV boost was performed within 4-8 weeks of the last regular injection boost. Splenectomies were performed after the final IV boost. Lymphocytes were isolated from each rabbit spleen. Fusions with 240E-W3 cells (Epitomics) were performed in forty 96-well plates. Standard ELISA screening for 40 plates was performed using TEM1-Fc protein. All positive hybridomas were expanded to 24-well plates and confirmatory standard and differential ELISA were performed. Fc reactive clones were counterscreened and removed, leaving the TEM1-reactive clones. Positive hybridomas were expanded for Ig gene sequencing and generation of purified Ab. One positive hybridoma was assigned the designation clone 8.
Binder,binding result [1],IC50 [2],binding result [3]
B1,binds,69.5 µg/mL,
B2,,41.5 µg/mL,
B3,,,binds
B4,,21.4 µg/mL,
